This note sets out measurements from PMC12415261 (Proceedings of the National Academy of Sciences of the …, 2025).

B1: Recombinant human BMP6 (mammalian expressed, glycosylated), P22004 375-513 (ligand)
chain: SASSRRRQQSRNRSTQSQDVARVSSASDYNSSELKTACRKHELYVSFQDLGWQDWIIAPKGYAANYCDGECSFPLNAHMNATNHAIVQTLVHLMNPEYVPKPCCAPTKLNAISVLYFDDNSNVILKKYRNMVVRACGCH
modifications: here or on the partner: N-linked glycosylation at Asn454 (prehelix loop)
B2: Recombinant human BMP6 (mammalian expressed, glycosylated) (ligand, UniProt P22004 375-513, looked up)
chain: B1 chain
modifications: N-linked glycosylation at Asn454 (prehelix loop)
notes: BMP6, human, mature domain of the precursor (residues 410 to 513 resolved in the cryoEM maps, 82.3% of the mature domain); disulfide-linked dimer; also called Bone Morphogenetic Protein 6; source: bought: RnD (Cat. No. 507-BP), produced from CHO cells
B3: Deglycosylated BMP6 (BMP6 treated with PNGaseF) (ligand, human, UniProt P22004 375-513, looked up)
chain: B1 chain
modifications: glycosylation completely removed with PNGaseF
notes: mature domain of human BMP6; also called dgBMP6; source: bought: RnD (Cat. No. 507-BP), CHO; deglycosylated with rapid PNGase F (15 min at 50 °C)
B4: Recombinant human BMP6, mammalian expressed (glycosylated), P22004 375-513 (ligand)
chain: B1 chain
modifications: here or on the partner: N-linked glycosylation at Asn454 (prehelical loop)
B5: Recombinant human BMP6, mammalian expressed (glycosylated) (ligand, UniProt P22004 375-513, looked up)
chain: B1 chain
modifications: N-linked glycosylation at Asn454 (prehelical loop)
notes: mature domain of human BMP6; residues 410 to 513 resolved in the maps (82.3% of mature domain); Dimer held together by a cystine knot; also called glycosylated BMP6; source: bought: RnD (Cat. No. 507-BP), produced from CHO cells
B6: Deglycosylated BMP6 (BMP6 treated with PNGaseF) (ligand, human, UniProt P22004 375-513, looked up)
chain: B1 chain
notes: BMP6, human, mature domain of the precursor, N-linked glycosylation completely removed with PNGaseF; disulfide-linked dimer; Same protein as Dm1 after PNGaseF treatment; also called dgBMP6; PNGaseF treated BMP6; source: bought: RnD (Cat. No. 507-BP), produced from CHO cells; deglycosylated with rapid PNGase F (New England Biolabs), 15 min at 50 C
B7: ActRIIB2-Fc (trap with two ActRIIB extracellular domains) (Fc fusion, human, UniProt Q13705-1 19-133, looked up)
chain: SGRGEAETRECIYYNANWELERTNQSGLERCEGEQDKRLHCYASWRNSSGTIELVKKGCWLDDFNCYDRQECVATEENPQVYFCCCEGNFCNERFTHLPEAGGPEVTYEPPPTAP
notes: signal peptide in the construct; ActRIIB (activin receptor type IIB), human, extracellular domain, residues 1 to 133, fused to an IgG1 Fc domain; The limits 1 to 133 are told for the ActRIIB-Fc fusions of this study in general; not shown: Fc (IgG1), C-terminal, kept
B8: ActRIIB2-Fc (Fc fusion, human, UniProt Q13705-1 19-133, looked up)
chain: B7 chain
notes: signal peptide in the construct; extracellular domain of human ActRIIB, residues 1 to 133; also called trap containing two ActRIIB ECDs; source: CHO cells, purified, as previously described (17, 19); not shown: Fc (IgG1), C-terminal, kept
B9: ActRIIB1-Fc (trap with a single ActRIIB extracellular domain) (Fc fusion)
chain: B7 chain
modifications: Printed range is 1-133; signal peptide 1-18 is removed. The deposited 9N4K/9MIR chains run to T134 before the linker. Human IgG1 Fc carrier is left out; the second Fc arm carries no receptor. …

Assay [1] addresses ActRIIB1-Fc (trap with a single ActRIIB extracellular domain) (human). In words: SPR; Cytiva T-200; trap captured through its Fc on a CM4 chip with immobilised goat antihuman Fc-specific IgG (about 3,000 RU); ligand flowed, five-step twofold dilution from 5 nM; 10 mM HEPES pH 7.4, 350 mM NaCl, 3.4 mM EDTA, 0.005% P-20; 25 C; 300 s association and dissociation, 30 uL/min; 1:1 fit with mass transport limitation; triplicate. A general note: SPR reads the build-up and loss of mass on a sensor chip optically.

For assay [2], the target named is T1, ALK3-ActRIIB-Fc (heterodimeric trap) (human, UniProt P36894 24-152; Q13705 19-133).
T1 construct: signal peptide in the construct; ActRIIB, human, extracellular domain, residues 1 to 133, fused to an IgG1 Fc domain; also called ALK3-IIB-Fc; ActRIIB-ALK3; source: SEC Superdex 200 increase; not shown: Fc (IgG1), C-terminal, kept; copies: 1 + 1
T1 sequence (P36894 24-152, one chain of several): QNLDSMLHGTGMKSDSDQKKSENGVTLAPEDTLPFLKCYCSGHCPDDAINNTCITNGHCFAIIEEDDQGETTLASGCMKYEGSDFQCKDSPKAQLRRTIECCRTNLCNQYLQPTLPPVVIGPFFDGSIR
The assay is described as above. As to conditions: both partners purified.

Assay [3] concerns the target T2, ALK2-ActRIIB-Fc (heterodimeric trap) (human, UniProt Q04771 21-123; Q13705 19-133).
T2 construct: signal peptide in the construct; ActRIIB, human, extracellular domain, residues 1 to 133, fused to an IgG1 Fc domain; also called ALK2-IIB-Fc; ActRIIB-ALK2; source: SEC Superdex 200 increase; not shown: Fc (IgG1), C-terminal, kept; copies: 1 + 1
The description is as above. To be noted: both partners purified.

Another assay has as its target T3, ALK3-ActRIIB-Fc (human, UniProt P36894 24-152; Q13705 19-133).
T3 construct: signal peptide in the construct; extracellular domain of human ActRIIB, residues 1 to 133; also called heterodimeric trap; ActRIIB-ALK3; source: CHO cells, cotransfected, purified (MabSelect SuRe protein A, SEC); not shown: Fc (IgG1), C-terminal, kept; copies: 1 + 1
The assay can be described thus: SPR; traps captured by goat antihuman Fc IgG on a CM4 chip; ligand flowed, five-step twofold dilution from 5 nM; HBS-EP+ (10 mM HEPES pH 7.4, 350 mM NaCl, 3.4 mM EDTA, 0.005% P-20), 25 °C; 1:1 fit with mass transport limitation. To be noted: both partners purified.

Another assay has as its target T4, ALK2-ActRIIB-Fc (human, UniProt Q04771 21-123; Q13705 19-133).
T4 construct: signal peptide in the construct; extracellular domain of human ActRIIB, residues 1 to 133; also called heterodimeric trap; ActRIIB-ALK2; source: CHO cells, cotransfected, purified (MabSelect SuRe protein A with pH gradient, SEC); not shown: Fc (IgG1), C-terminal, kept; copies: 1 + 1
The assay is described as above. As to conditions: both partners purified.

Another assay deals with ActRIIB1-Fc (human). The assay is described as above.
For assay [4], the target named is B2. The assay can be described thus: SPR; Cytiva T-200; trap captured through its Fc on a CM4 chip with immobilised goat antihuman Fc-specific IgG (about 3,000 RU); ligand flowed, five-step twofold dilution from 5 nM; 10 mM HEPES pH 7.4, 350 mM NaCl, 3.4 mM EDTA, 0.005% P-20; 25 C; 300 s association and dissociation, 30 uL/min; 1:1 fit with mass transport limitation; triplicate. As to conditions: both partners purified.

The target of assay [5] is B6. The assay is described as above. As to conditions: both partners purified.
The target in assay [6] is B5. The assay can be described thus: SPR; traps captured by goat antihuman Fc IgG on a CM4 chip; ligand flowed, five-step twofold dilution from 5 nM; HBS-EP+ (10 mM HEPES pH 7.4, 350 mM NaCl, 3.4 mM EDTA, 0.005% P-20), 25 °C; 1:1 fit with mass transport limitation. As to conditions: both partners purified.

T2 sequence (Q04771 21-123, one chain of several): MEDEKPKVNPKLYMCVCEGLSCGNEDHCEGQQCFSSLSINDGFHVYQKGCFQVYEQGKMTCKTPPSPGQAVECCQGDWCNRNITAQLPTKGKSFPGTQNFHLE
T3 sequence (P36894 24-152, one chain of several): as the sequence (P36894 24-152, one chain of several) above
T4 sequence (Q04771 21-123, one chain of several): as the sequence (Q04771 21-123, one chain of several) above

In [1], B1 returned a koff of 0.00234 s⁻¹ and a kon of 2.16e+07 M⁻¹ s⁻¹.
Regarding B2, the off-rate constant (koff) amounted to 0.000423 s⁻¹ in assay [2] and 0.000528 s⁻¹ in assay [3]. Further, the kon in assay [2] was found to be 1.39e+07 M⁻¹ s⁻¹; in assay [3], 1.43e+07 M⁻¹ s⁻¹.
As to B3, the equilibrium dissociation constant (Kd) was found to be 0.0351 nM with ALK3-ActRIIB-Fc and 0.127 nM with ALK2-ActRIIB-Fc.
In the assay with ActRIIB1-Fc (human), B4 returned a Kd of 0.108 nM.
For the molecule B5, the figures for the Kd with ALK3-ActRIIB-Fc and with ALK2-ActRIIB-Fc were 0.03 nM and 0.0366 nM, respectively.
For B6, in assay [2], the off-rate (koff) was 0.000432 s⁻¹ and the kon is 1.23e+07 M⁻¹ s⁻¹. In assay [3], this molecule showed a koff of 0.00147 s⁻¹ and an on-rate constant (kon) of 1.16e+07 M⁻¹ s⁻¹.
Turning to B7, in [4], the koff is 0.00119 s⁻¹ and the kon was 3.17e+07 M⁻¹ s⁻¹. In assay [5], this molecule returned a Kd of 0.0489 ± 0.006 nM, a koff of 0.00152 s⁻¹ and a kon of 3.12e+07 M⁻¹ s⁻¹.
As to B8, in assay [6], the dissociation constant Kd was 0.0421 nM.
On to B9, for which, in [5], binding was characterised by a dissociation constant (Kd) of 0.11 ± 0.0148 nM, the koff came out at 0.00186 s⁻¹ and the kon was 1.7e+07 M⁻¹ s⁻¹.

The koff is a measure of how fast the partners let go of each other. One may read the kon as the rate constant with which the complex forms. As usually defined, the Kd is the equilibrium constant for the complex coming apart.
